The results in this text go back to US20200087367A1 (ACCELERON PHARMA, published 2020).

The chains are these.
T1: BMP10pro(22-315)-mFc (human, UniProt O95393 22-315)
T1 construct: also called mouse Fc equivalent construct; not shown: optional linker and mouse immunoglobulin G1 Fc domain
T1 sequence: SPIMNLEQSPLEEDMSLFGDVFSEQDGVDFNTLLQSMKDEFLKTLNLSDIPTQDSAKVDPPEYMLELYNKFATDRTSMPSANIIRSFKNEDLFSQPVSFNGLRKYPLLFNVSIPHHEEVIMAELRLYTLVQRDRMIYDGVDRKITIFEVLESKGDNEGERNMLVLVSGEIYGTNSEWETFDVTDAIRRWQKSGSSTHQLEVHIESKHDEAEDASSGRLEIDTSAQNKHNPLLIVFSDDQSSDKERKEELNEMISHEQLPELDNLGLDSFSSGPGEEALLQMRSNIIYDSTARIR

T2: BMP10pro(22-312)-mFc (human, UniProt O95393 22-312)
T2 construct: also called mouse Fc equivalent construct; not shown: optional linker and mouse immunoglobulin G1 Fc domain
T2 sequence: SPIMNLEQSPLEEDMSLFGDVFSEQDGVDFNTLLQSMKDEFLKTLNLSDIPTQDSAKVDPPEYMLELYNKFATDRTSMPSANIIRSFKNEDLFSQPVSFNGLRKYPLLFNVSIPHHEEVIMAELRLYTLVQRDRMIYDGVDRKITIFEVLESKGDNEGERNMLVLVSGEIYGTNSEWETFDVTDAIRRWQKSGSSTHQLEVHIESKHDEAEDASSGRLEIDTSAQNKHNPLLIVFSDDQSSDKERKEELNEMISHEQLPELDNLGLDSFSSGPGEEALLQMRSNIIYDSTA

T3: BMP10 (human, UniProt O95393 317-424)
T3 construct: also called hBMP-10; hBMP10
T3 sequence: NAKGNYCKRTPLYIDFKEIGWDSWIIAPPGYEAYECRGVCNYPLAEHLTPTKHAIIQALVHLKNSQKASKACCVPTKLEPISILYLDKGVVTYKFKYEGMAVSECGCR

T4: BMP9 (human, UniProt Q9UK05 320-429)
T4 construct: also called hBMP-9; hBMP9
T4 sequence (looked up): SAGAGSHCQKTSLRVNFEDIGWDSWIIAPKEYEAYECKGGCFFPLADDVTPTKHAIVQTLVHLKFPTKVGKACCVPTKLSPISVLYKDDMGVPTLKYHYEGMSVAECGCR

T5: BMP6 (human, UniProt P22004 382-513, limits assumed)
T5 sequence (looked up): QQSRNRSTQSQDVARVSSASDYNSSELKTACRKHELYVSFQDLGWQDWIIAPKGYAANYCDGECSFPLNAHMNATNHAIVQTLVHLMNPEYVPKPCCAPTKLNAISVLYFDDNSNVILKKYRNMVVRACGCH

B1: BMP5 (ligand, human, UniProt P22003 317-454, looked up)
chain: AANKRKNQNRNKSSSHQDSSRMSSVGDYNTSEQKQACKKHELYVSFRDLGWQDWIIAPEGYAAFYCDGECSFPLNAHMNATNHAIVQTLVHLMFPDHVPKPCCAPTKLNAISVLYFDDSSNVILKKYRNMVVRSCGCH
B2: hENG(360-457)-hFc (Fc fusion)
chain: QTKCADDAMTLVLKKELVAHLKCTITGLTFWDPSCEAEDRGDKFVLRSAYSSCGMQVSASMISNEAVVNILSSSSPQRKKVHCLNMDSLSFQLGLYLS
notes: Expressed in COS cells, not purified; not shown: linker and human IgG1 Fc domain
B3: ActRIIB-hFc (Fc fusion)
chain: GRGEAETRECIYYNANWELERTNQSGLERCEGEQDKRLHCYASWRNSSGTIELVKKGCWLDDFNCYDRQECVATEENPQVYFCCCEGNFCNERFTHLPEAGGPEVTYEPPPTAPTGGGTHTCPPCPAPELLGGPSVFLFPPKPKDTLMISRTPEVTCVVVDVSHEDPEVKFNWYVDGVEVHNAKTKPREEQYNSTYRVVSVLTVLHQDWLNGKEYKCKVSNKALPVPIEKTISKAKGQPREPQVYTLPPSREEMTKNQVSLTCLVKGFYPSDIAVEWESNGQPENNYKTTPPVLDSDGSFFLYSKLTVDKSRWQQGNVFSCSVMHEALHNHYTQKSLSLSPGK
notes: Extracellular domain of human ActRIIB, linker, human Fc
B4: ALK1-mFc (Fc fusion, mouse, UniProt Q61288 23-119, looked up)
chain: DLAKPSKLVNCTCESPHCKRPFCQGSWCTVVLVREQGRHPQVYRGCGSLNQELCLGRPTEFLNHHCCYRSFCNHNVSLMLEATQTPSEEPEVDAHLP
notes: extracellular domain; Mouse ALK1 fused to a murine Fc domain with a linker; also called mALK1-mFc; not shown: linker and murine Fc domain
B5: hENG(258-346)-hFc (Fc fusion)
chain: YVSWLIDANHNMQIWTTGEYSFKIFPEKNIRGFKLPDTPQGLLGEARMLNASIVASFVELPLASIVSLHASSCGGRLQTSPAPIQTTPP
notes: HEK 293, purified; not shown: linker and human IgG1 Fc domain
B6: hENG(360-437)-hFc (Fc fusion)
chain: QTKCADDAMTLVLKKELVAHLKCTITGLTFWDPSCEAEDRGDKFVLRSAYSSCGMQVSASMISNEAVVNILSSSSPQR
notes: as for B2
B7: ActRIIB(L79D 25-131)-mFc (Fc fusion)
chain: ETRECIYYNANWELERTNQSGLERCEGEQDKRLHCYASWRNSSGTIELVKKGCWDDDFNCYDRQECVATEENPQVYFCCCEGNFCNERFTHLPEAGGPEVTYEPPPT
notes: not shown: linker and mouse Fc domain

The target of one experiment is T1, BMP10pro(22-315)-mFc. Briefly: SPR (Biacore), BMP10pro-Fc captured by anti-Fc antibody, ligand injected. The protocol: (§1) The BMP10pro-Fc proteins were separately was captured onto the system using an anti-Fc antibody, and ligands were injected and allowed to flow over the captured receptor protein. […] The mouse Fc equivalent constructs behaved similarly. […] The affinity of BMP10pro(22-315)-hFc for BMP3b was not assessed.

For another experiment, the target named is T2, BMP10pro(22-312)-mFc. The experiment is described as above. The protocol:
as §1

In experiment [1] the target is T3, BMP10. Put plainly: SPR, captured hENG-hFc, soluble BMP10; '-' = Binding undetectable. As for the experimental part: (§2) SPR methodology was used to screen these hENG-hFc protein variants for high-affinity binding to human BMP9 and BMP10. In these experiments, captured hENG-hFc proteins were exposed to soluble BMP9 or BMP10 at 100 nM each.
In experiment [2] the target is T4, BMP9. Briefly: SPR, captured hENG-hFc, soluble BMP9; '-' = Binding undetectable. The protocol: as §2
Experiment [3] addresses T3, BMP10. Put plainly: SPR (Biacore), ligand amine-coupled to CM5 chip, Fc fusion injected.
For experiment [4], the target named is B1. Described as above.
Experiment [5] has as its target T4, BMP9. The experiment is described as above.
A further experiment addresses T5, BMP6. Described as above.
In experiment [6] the target is T4, BMP9. Put plainly: SPR (Biacore), ligand amine-coupled to chip, Fc fusion injected; the hFc form had only transient affinity for BMP9. The source says: Ligands were immobilized on a Biacore™ CMS chip using standard amine-coupling procedure.
Experiment [7] addresses T3, BMP10. Put plainly: SPR (Biacore), ligand amine-coupled to chip, Fc fusion injected.
In experiment [8] the target is B1. The experiment is described as above.

B1: the binding result with BMP10pro(22-315)-mFc and with BMP10pro(22-312)-mFc was “binds” each time.
On to B2, for which the binding result with BMP10 [1] and with BMP9 [2] was “no binding (tested: 100 nM)” each time.
Turning to B3, the Kd turned out to be 0.0173 nM with BMP10 [3], 2.92 nM with BMP5 [4], 0.0335 nM with BMP9 [5] and 0.164 nM with BMP6.
Regarding B4, the binding result is on record as “binds” with BMP10 [3], “no binding” with BMP5 [4], “binds” in the experiment with BMP9 [5] and “no binding” in the experiment with BMP6.
As to B5, the binding result in the experiment with BMP10 [1] and in the experiment with BMP9 [2] was “no binding (tested: 100 nM)” each time.
B6: the binding result with BMP10 [1] and in the experiment with BMP9 [2] was “no binding (tested: 100 nM)” in each case.
Turning to B7, the values for the binding result with BMP9 [6], with BMP10 [7] and with BMP5 [8] were “binds”, “binds” and “no binding”, respectively.
